Assay results from patent US20250262210A1 (TRUSTEES OF COLUMBIA UNIVERSITY IN THE CITY OF NEW YORK, published 2025).

How the values were obtained:
Assay in all cases: IP/MS, LZTR1 R810W-FLAG, U87
[1] = target: MAP4K4 (human, UniProt O95819 2-1239, limits assumed)
Method in brief: (§1)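 Gel slices were reduced with 5 mM DTT, alkylated with 11 mM IAA and digested overnight at 37° C. with trypsin. Peptides were analysed on an Orbitrap Fusion Tribrid by LC-MS/MS.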

[2] = target: KNL1 (human, UniProt Q8NG31 1-2342, limits assumed)
Method in brief: as §1

[3] = target: PEAK1 (human, UniProt Q9H792 1-1746)
Method in brief: as §1

[4] = target: THADA (human, UniProt Q6YHU6 1-1953, limits assumed)
Method in brief: as §1

[5] = target: ASXL1 (human, UniProt Q8IXJ9 1-1541, limits assumed)
Method in brief: as §1

[6] = target: T1, ATAD2 (human, UniProt Q6PL18 1-1390, limits assumed)
T1 sequence (looked up): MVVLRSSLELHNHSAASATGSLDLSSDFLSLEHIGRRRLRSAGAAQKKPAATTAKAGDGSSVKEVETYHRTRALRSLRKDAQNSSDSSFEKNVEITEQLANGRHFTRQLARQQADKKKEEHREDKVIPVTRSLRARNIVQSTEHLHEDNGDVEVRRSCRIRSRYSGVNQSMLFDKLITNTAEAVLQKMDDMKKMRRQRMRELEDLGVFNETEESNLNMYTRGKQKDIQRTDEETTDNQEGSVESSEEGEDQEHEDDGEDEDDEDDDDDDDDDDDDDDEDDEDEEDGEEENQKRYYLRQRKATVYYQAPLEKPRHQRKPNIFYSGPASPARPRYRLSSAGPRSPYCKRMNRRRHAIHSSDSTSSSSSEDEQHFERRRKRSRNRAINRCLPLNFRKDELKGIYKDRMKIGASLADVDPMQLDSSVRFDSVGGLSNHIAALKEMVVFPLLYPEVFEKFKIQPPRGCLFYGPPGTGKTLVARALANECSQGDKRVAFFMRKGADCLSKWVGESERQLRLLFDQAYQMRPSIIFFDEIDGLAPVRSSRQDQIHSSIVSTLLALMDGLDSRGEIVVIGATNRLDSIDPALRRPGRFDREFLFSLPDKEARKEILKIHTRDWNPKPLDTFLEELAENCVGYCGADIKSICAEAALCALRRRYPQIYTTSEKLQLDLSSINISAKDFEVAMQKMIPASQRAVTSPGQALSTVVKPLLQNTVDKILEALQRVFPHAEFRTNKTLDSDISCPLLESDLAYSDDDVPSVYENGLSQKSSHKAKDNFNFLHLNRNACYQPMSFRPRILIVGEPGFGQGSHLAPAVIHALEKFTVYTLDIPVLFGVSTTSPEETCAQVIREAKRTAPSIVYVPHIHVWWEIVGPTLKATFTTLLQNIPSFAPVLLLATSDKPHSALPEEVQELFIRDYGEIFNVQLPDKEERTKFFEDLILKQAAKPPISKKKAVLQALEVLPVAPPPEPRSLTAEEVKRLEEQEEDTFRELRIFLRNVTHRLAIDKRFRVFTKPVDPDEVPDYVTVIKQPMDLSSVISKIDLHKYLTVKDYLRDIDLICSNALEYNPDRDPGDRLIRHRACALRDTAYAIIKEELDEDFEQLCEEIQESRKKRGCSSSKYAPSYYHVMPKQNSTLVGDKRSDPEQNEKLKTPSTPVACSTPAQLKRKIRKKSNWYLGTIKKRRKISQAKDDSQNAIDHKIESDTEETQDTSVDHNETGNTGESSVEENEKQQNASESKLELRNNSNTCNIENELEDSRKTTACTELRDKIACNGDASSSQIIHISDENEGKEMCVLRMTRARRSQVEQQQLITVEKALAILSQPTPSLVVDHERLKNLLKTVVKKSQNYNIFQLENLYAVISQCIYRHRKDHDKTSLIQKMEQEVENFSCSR
Method in brief: as §1

Measured: binding result

Sequence of ASXL1 (Q8IXJ9 whole entry): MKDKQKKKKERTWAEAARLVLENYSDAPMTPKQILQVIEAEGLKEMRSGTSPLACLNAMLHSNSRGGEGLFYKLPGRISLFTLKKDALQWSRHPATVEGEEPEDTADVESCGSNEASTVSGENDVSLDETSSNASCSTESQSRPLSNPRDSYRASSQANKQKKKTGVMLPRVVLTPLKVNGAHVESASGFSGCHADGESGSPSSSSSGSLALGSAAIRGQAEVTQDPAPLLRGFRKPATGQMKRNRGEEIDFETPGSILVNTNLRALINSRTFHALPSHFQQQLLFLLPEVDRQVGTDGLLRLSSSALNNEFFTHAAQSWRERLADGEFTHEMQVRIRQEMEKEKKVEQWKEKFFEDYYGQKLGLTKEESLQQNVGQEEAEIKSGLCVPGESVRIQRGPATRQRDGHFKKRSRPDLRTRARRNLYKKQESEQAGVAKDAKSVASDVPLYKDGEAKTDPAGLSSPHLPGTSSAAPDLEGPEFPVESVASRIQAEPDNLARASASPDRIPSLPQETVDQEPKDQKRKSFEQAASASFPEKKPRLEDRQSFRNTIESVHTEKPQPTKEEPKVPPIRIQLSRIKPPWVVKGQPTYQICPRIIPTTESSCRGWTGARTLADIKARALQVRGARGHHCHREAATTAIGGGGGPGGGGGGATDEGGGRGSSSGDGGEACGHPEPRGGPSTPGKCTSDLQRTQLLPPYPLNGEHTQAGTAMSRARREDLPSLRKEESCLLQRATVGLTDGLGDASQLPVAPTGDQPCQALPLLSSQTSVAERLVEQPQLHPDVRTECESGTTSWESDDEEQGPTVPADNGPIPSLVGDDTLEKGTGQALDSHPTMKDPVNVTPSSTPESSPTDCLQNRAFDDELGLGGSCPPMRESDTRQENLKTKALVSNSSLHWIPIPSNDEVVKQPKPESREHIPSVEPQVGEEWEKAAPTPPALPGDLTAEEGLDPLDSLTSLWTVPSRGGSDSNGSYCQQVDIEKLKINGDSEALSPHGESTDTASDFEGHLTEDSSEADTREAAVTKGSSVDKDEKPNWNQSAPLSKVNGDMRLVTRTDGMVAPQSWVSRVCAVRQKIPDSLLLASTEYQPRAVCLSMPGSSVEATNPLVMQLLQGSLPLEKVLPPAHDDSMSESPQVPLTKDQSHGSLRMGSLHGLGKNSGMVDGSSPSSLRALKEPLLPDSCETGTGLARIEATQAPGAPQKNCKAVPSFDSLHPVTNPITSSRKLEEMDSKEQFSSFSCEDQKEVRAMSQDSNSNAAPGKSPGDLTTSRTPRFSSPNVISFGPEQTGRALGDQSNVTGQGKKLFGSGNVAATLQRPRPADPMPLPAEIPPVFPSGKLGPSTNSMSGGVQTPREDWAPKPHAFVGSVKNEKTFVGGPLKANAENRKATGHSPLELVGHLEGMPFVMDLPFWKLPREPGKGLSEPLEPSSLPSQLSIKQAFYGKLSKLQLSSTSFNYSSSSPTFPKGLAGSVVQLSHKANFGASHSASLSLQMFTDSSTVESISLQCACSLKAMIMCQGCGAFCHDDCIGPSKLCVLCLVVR
Sequence of KNL1 (Q8NG31 whole entry): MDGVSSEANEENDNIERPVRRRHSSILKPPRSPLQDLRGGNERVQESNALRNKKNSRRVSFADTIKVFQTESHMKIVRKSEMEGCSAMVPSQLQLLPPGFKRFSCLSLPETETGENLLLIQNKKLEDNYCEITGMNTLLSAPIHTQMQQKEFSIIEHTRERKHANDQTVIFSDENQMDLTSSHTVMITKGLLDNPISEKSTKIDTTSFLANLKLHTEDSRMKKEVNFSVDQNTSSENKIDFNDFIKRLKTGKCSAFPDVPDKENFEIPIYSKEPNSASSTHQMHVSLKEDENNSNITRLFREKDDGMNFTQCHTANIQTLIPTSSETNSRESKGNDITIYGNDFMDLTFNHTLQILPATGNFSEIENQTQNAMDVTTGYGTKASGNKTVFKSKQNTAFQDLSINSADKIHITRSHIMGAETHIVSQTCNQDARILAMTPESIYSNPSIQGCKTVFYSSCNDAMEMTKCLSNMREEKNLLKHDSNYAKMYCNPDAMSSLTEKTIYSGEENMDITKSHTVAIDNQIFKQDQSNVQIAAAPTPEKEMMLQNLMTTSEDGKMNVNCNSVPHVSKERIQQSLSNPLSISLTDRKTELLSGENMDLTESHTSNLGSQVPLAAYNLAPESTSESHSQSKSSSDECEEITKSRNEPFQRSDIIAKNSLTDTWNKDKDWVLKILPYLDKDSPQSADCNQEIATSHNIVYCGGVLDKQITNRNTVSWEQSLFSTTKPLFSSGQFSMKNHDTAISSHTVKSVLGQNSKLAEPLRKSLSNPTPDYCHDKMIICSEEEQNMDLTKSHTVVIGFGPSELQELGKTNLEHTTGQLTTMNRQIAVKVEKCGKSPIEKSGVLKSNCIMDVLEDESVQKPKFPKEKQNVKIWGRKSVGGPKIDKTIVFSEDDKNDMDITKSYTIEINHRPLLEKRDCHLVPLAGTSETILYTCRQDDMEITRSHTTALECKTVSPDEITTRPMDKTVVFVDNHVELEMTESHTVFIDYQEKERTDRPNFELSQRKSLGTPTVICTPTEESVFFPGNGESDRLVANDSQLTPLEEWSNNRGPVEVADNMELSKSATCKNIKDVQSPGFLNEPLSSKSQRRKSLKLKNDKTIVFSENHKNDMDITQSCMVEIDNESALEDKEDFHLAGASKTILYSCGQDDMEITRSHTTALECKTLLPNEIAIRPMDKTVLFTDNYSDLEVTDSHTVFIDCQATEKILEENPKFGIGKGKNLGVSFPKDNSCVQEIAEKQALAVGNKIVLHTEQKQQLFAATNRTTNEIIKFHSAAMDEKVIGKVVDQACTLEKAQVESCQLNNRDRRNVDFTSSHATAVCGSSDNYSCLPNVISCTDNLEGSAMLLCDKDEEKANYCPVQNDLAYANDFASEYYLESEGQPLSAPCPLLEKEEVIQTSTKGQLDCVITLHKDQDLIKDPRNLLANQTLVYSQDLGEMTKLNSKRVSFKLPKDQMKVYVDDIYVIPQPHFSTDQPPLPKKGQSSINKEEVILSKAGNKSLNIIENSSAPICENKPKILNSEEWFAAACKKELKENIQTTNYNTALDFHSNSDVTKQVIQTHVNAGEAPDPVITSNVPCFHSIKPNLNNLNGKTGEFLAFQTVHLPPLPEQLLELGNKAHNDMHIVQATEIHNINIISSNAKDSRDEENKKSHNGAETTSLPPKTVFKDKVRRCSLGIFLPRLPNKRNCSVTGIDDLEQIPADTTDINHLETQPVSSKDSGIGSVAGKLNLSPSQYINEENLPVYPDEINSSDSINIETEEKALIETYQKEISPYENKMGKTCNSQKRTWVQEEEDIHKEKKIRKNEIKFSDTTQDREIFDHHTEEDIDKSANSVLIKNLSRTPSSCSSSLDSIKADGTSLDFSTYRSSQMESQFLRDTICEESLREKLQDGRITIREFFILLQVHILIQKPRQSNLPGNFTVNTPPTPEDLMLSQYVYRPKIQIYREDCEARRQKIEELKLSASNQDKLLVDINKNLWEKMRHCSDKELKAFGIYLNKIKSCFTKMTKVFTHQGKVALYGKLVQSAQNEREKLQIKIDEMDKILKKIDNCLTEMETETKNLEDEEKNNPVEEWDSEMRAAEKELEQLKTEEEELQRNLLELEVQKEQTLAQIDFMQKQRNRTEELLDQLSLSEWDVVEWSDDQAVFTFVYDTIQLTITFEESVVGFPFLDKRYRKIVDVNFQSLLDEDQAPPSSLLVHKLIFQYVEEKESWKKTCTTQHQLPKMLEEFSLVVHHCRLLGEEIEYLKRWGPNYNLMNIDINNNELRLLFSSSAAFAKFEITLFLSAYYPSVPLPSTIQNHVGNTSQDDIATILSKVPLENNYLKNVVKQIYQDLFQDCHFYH
Sequence of MAP4K4 (O95819 2-1239 limits assumed): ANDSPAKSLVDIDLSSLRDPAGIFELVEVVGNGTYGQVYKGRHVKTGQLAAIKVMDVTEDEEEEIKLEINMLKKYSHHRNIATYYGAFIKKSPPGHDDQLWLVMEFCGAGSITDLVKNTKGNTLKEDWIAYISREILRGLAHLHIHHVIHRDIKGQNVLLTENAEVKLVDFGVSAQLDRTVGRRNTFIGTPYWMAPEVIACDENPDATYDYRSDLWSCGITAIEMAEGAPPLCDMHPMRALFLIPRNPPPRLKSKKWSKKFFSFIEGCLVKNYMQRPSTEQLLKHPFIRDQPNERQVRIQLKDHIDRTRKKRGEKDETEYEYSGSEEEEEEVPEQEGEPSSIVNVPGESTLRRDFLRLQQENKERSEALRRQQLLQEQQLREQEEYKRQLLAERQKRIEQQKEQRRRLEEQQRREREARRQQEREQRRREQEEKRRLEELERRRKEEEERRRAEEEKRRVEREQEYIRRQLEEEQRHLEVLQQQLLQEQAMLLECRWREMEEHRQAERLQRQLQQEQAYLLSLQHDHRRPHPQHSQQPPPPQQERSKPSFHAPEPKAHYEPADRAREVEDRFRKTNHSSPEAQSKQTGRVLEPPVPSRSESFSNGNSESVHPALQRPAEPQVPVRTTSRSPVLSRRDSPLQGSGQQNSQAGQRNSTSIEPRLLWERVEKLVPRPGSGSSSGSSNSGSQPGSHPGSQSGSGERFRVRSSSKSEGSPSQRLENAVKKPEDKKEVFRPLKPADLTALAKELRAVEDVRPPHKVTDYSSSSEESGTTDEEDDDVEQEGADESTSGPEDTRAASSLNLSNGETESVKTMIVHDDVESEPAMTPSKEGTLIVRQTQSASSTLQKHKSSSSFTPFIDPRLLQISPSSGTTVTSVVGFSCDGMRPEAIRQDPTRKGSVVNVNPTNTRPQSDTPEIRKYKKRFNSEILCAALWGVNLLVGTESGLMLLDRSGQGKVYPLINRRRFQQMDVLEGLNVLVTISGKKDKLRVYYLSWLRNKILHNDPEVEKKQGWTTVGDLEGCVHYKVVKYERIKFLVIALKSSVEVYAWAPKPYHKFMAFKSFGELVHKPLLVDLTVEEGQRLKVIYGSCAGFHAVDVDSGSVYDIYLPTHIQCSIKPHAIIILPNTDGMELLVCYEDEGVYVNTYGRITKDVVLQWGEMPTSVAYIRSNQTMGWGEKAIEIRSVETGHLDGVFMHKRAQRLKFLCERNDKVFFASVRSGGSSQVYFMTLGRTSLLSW

B1: LZTR1 R810W-FLAG (other, human, UniProt Q8N653 1-840, looked up)
chain: MAGPGSTGGQIGAAALAGGARSKVAPSVDFDHSCSDSVEYLTLNFGPFETVHRWRRLPPCDEFVGARRSKHTVVAYKDAIYVFGGDNGKTMLNDLLRFDVKDCSWCRAFTTGTPPAPRYHHSAVVYGSSMFVFGGYTGDIYSNSNLKNKNDLFEYKFATGQWTEWKIEGRLPVARSAHGATVYSDKLWIFAGYDGNARLNDMWTIGLQDRELTCWEEVAQSGEIPPSCCNFPVAVCRDKMFVFSGQSGAKITNNLFQFEFKDKTWTRIPTEHLLRGSPPPPQRRYGHTMVAFDRHLYVFGGAADNTLPNELHCYDVDFQTWEVVQPSSDSEVGGAEVPERACASEEVPTLTYEERVGFKKSRDVFGLDFGTTSAKQPTQPASELPSGRLFHAAAVISDAMYIFGGTVDNNIRSGEMYRFQFSCYPKCTLHEDYGRLWESRQFCDVEFVLGEKEECVQGHVAIVTARSRWLRRKITQARERLAQKLEQEAAPVPREAPGVAAGGARPPLLHVAIREAEARPFEVLMQFLYTDKIKYPRKGHVEDVLLIMDVYKLALSFQLCRLEQLCRQYIEASVDLQNVLVVCESAARLQLSQLKEHCLNFVVKESHFNQVIMMKEFERLSSPLIVEIVRRKQQPPPRTPLDQPVDIGTSLIQDMKAYLEGAGAEFCDITLLLDGHPRPAHKAILAARSSYFEAMFRSFMPEDGQVNISIGEMVPSRQAFESMLRYIYYGEVNMPPEDSLYLFAAPYYYGFYNNRLQAYCKQNLEMNVTVQNVLQILEAADKTQALDMKRHCLHIIVHQFTKVSKLPTLWSLSQQLLLDIIDSLASHISDKQCAELGADI
notes: Stably expressed in U87 cells by lentivirus; also called LZTR1-FLAG-R810W; LZTR1 RW; not shown: FLAG tag
binds: all assays above
